Laboratory results reported in a protein production outcome set (Wang et al. 2014).

Assay: label from the status in PepcDB records

Row | Sequence | protein production
1 | MSGTLLAFDFGTKSIGVAVGQRITGTARPLPAIKAQDGTPDWNIIERLLKEWQPDEIIVGLPLNMDGTEQPLTARARKFANRIHGRFGVEVKLHDERLSTVEARSGLFEQGGYRALNKGKVDSASAVIILESYFEQGY | not failed
2 | MSGVRFPSGSLKDVRFFLHLFFSSKYGIIYVRYLDEEGTIMKQIIISVGREFGSGGHIVAQKLAEHYDIPIFNKELLEEMARKEGYSEKALEKYDEKPVNFGFMPLPYAGGNIPIEQEIAMKQFEFIKNKADAGESFVIVGRCADEILAYNPNLVSVFITGDRESKIARVMDREGLDRKQAINKMKRMDKIRKTYHNFYCRNKWGDSRGYDICINTGKTDFDTAKNMVVECVDKLKERSE | failed
3 | MSGWYELSKSSNDQFKFVLKAGNGEVILTSELYTGKSGAMNGIESVQTNSPIEARYAKEVAKNDKPYFNLKAANHQIIGTSQMYSSTAARDNGIKSVMENGKTTTIKDLTLEHHHHHH | not failed
4 | MSHAIQIREAHFPGRAPIDAYGNGGFRFADMSHRGSIICIPSGIYGIDMTGPVPTQEDISRVLEESDQIEVLLIGTGVELLRLPEELRVLLWEKRISSDTMSTGAAVRTFNVLLAEDRAVAALLFAVE | not failed
5 | MSHCSCHDKPQHSLLPAAYRILSITRHTPLEWNFRVAVDFPAHWGQFVEVSLPRVGEAPISVSDYGDGWIDLLIRNLGKVTSALFTLKEGDNVWLRGCYGNGYPVDTLRHKPLLVVAGGTGVAPVKGLMRYFVENPQEIGQLDMILGYKNRDCVLYKEEMATWRGKHNLVLTLDEGEADDRYQIGRVTDRLADMTLSDIDTMQAIVVGPPIMITFTVKMLLQKGLKPEQIWVDYERRMACSVGKCGHCRMGEVYVCTDGPIFNYAVAQRFAD | failed
6 | MSHHNPLVSVVIPSKNRPDLVIATLVSVIDQTYDNIEIIVVDDGSDMPLAPLLKDRFSDRVLCLRNDQSLGGAVARNRGAQSAHGDYITFLDDDDLWLPKKLEMQVDAFSKHGVDIGVVYCGFDFLCKEEIVPRQNKFHNDYDLSIAVLSGCPFGSPTPLIRKHYFDMVGGFDRELPSCQDWDLWIRLSKVCGFYPVKESLALYRVHGDQISTNLRKKIDGRKMVLAKHYDEIKNYPRVLSAHYSRIGSLCVLADEHVEARDFFSKALASNMFDGGSFVHLVLQFLCRPLEKWLIERFSVNTIDGIKVIHLEHHHHHH | failed
7 | MSHHVQREIRYNFEFDHRIRACFIGAGGHAYRNVYPALRYAPVELSGICDLDIGRAEKFAKLFGAGKAYTDHREMLEQEKPELVFLVTAYHPDGRVQATDLALDALASGAHVWMEKPTAASLEDIERLQAASAAAGRMVMTGLKKTFFPTIEKLRDLIGSPGFGRLTSINVRYPQSLPGQEDRADLVKMQSFLDHIYHPGAILHFLGGEIERAGYEWEALTGATITSLRFHSGAIGTLHLAAGQSGSSIFERVEIIGEGANAIVENGSRLTYFRKADLPSYGRAASFIQPDENAALFYEPEHSLGQLYNNNLFYLGYVPEILHLTDAILSGTPISRGTLEIAREIMKLFEFYRRTDAGVTTNL | failed
8 | MSIDIQLFYLPLHTNNPLILNKQMKLRNVSAGIVLCLTMVSCIQDEALNVEAAIDGCSGTNIQLSTINPSSKTASIYVSKSTDLSALEIKFTLPDGASIEPVNAIANDAPPKYDFSTSQIPITPEQTLEQYQRKFRVTSESETTEAVYTITVIKSELPTNFHFENLVDGSSDYHELYEFNQQQGETLQWASGNPGFKLTGMAKSPFDYPTLQTEGYIGKGIRLETKSTGDFGEKVKMPIAAGNLFIGTFIVKDALRDAKAATKFGFPFFKHPKTLKGYYKFQPGTVYISGTDENRKPIIDPSMEGKDKGDIYAVLYEADDVEDFLDGYNSLNSNKIIALARIPSIEKTSEWKQFELPFEYKKAIDESALKEGKYKLAVVFSSSINGAEFKGSVGSTLWIDEVTIQCKEDNE | failed
9 | MSIDWAALGSVFGVSLVVTVGLVGLFTLGIVGLTKKESAEGGSAALATTGAYACFAACAAAVAYGIYLIVA | failed
10 | MSIEATLLARCESKCELCSSESPLTAYAVPPHGNVTVDTAIMVCDKCHSEIEEPKDINHWRCLNESMWSQVPAVQVTAWRQLTRLNSESWAQDALDMMYMEEEQKNWAMTGMSADDKTVDCNGTELKKGDDVTVIKDLPVKGTNQVIKQGTVIRGISLGDDPKLISGKANGGQSMYVIAEYCRKKLEHHHHHH | failed
11 | MSIEKKVGFFFIAGLVLLGVMLELGEKWNPFQKAIPYKTYLSSTTGLKLGDPVRLAGVEVGKITKIAIADSRVEVAFEVKPGTAIKADSVATIRLTNLLGGQFLGLSFGSPDAPVLPPGSAVKSRETANIDVIVDNVGDLAKDAKVLIKDLTVNQKEVFQKVSSMLDENRGNLRGAIENMNSITTKMDRGQGSLALLLNDKSLYRNTNELAASMKNVTAKIEKGEGSLGKFVNDDAFYRDAKGAVANLNDGAKDIKEIAAKINRGEGSVGKLVNDESLYNELRDASKNVGEVAKKINNGQGTLGKLVNDDTLYRDTTAAMKKLDKATEGLSDTGPISVIGSMVGTLFLEHHHHHH | not failed
12 | MSIEPDGTVNRPEENIHLLQLHDSPVMRWLYLSIGMTALFMGILGIFLPILPTTPFILLAAGCFARSSERFHSYLLNHRIAGPIIREWCEYRSVARHVKRWAYLVMALSFGSSILIVSSWWLKGMLALLAMILFTFIWRLPVRDQSR | failed
13 | MSIFTAAMIALVYWISQAKVWYGFSIMRMPLSIAPIMGLIFNDMPTALSVGATLQMIYIGSIAPGGNPPADEGLASCIAIPIALTAGIKPEIAISLAIPLGLLGVVLENVRKTLNTTFIHMADRYAEKGDIKGIQRAATIYPLLLAFPMRFVPVFIACLYGPDAIASFVNLLPAWSTNGLAIAGNILPALGFAITIIVIGKKQYIPLFIIGFFLVTYSGLNTIGISIFGLCAVLLYMQSQNTKGTKNG | failed
14 | MSILHTVNKSPFERNSLESCLKFATEGASVLLFEDGIYAALAGTRVESQVTEALGKLKLYVLGPDLKARGFSDERVIPGISVVDYAGFVDLTTECDTVQAWL | not failed
15 | MSILKVIKQKWVALGALLGSGALVGLSTNLAKVAYGQDLAPFPFLTWSLAGATLILGSISFLTKQTPPTNTGAIKYYFIAGFFSVAGSNLILFSAVSHVGVSFVVLVISLTPIFTYIAALALGMEIFSRWRVASVIFSLAGTALLVTAKLSLPETNHLWILITLIGPVLLASGNIYRTSHWPKGAKPESLAPGMLLAATATLVLAAISIQGVSLFALFNTENIGLIVLQSIIFSGQFLLLFVLQKAGGPVFLSLTGAVSAAFGIPFAMALLDEPMLPALAPSALLIVTGIIFMMKEQAISNA | failed
16 | MSILTIILIVLLVILLFKVGLSILRFLISVGIVLLCIYLGYQGVLWLFEHFQNFSGFIQ | failed
17 | MSIMKDPNHSPHSGGMLLGFIGVAIFSQTLPFTRMAVAELDATFVALGRAVIAAALALALLAMRGALASGRRPRGGQWLRLAVTALGVVVGFPVFSSLAMREVPSGHGAIVIGLLPLATAVFAAWFGNERPSLGFWLSALAGSALVVAFALWQGAGGLQHADWYLFLAVVLGALGYAEGGKLSRELGGLETISWALVVSLPVLAPVVAWLGLEHAASIAAASPRAWLGMAYVSVFSMFIGFLFWYAGLAKGGVARVGQIQLLQPFLTLAGGALILAEPLDAATVAFAVAVIAVVALGRRAAVRNTAPAMPLASAAEEAPPILPGRLH | failed
18 | MSINIDSGQDSDQEHDDVMYPQVLPFVLIHAGCLAAIWSGVSWQAVAICVALYWLRMFGITAGYHRYFSHRAYATSRAFQFILAFLAQSSAQKSVLWWAAKHRHHHLHSDTAQDVHSPRHKGFVYSHLGWIFYRQHDATDLVKVSDLASYPELMWLHRLELLPAVVLAGLCFLIAGWSGLVVGFMWSTVVLYHATFCINSLAHVHGRRRYVTGDDSRNNWLLALLTMGEGWHNNHHAYQASARQGFYWYEVDLTYYALVALSWLGIVWDLKLPPRQVLRNEHRLGSRVVKQAAEQLAARFDPEHIALAIRTSIHETELSVRDALSLLQHRADLRLSSMPTREQLLAEAQRMFAKTISLDDIVDRAYELLHDSVGFLLATPALSANTNAKSGI | failed
19 | MSINIISIVSIIIWILLITELIKPSKEQNGRKIVTLVTAGSASTLILTVSFIQNIPFWN | failed
20 | MSINLQLETPRLLLREFQNSDKVAFAAYRSDPGTAKYQSWDTPYSEAQAEAFIESLQHLTSSILGEWYQLAIELKSTRQIIGDCAFCILAEDGKQGEIGFTLARKYQGNGYGTEAVIFLLNYLFNHLNLHRVRANCDPENLASIKLLERVGMRLEGRFIKSLWFKNNWVDEMWFAILQDEFTAVNV | failed
21 | MSINLRSSGCSSPISATLERRLDSEVQTRANNVSFEQTKEKIRKMLEKVELSVSAYDTSWVAMVPSPSSQNAPLFPQCVKWLLDNQHEDGSWGLDNHDHQSLKKDVLSSTLASILALKKWGIGERQINKGLQFIELNSALVTDETIQKPTGFDIIFPGMIKYARDLNLTIPLGSEVVDDMIRKRDLDLKCDSEKFSKGREAYLAYVLEGTRNLKDWDLIVKYQRKNGSLFDSPATTAAAFTQFGNDGCLRYLCSLLQKFEAAVPSVYPFDQYARLSIIVTLESLGIDRDFKTEIKSILDETYRYWLRGDEEICLDLATCALAFRLLLAHGYDVSYDPLKPFAEESGFSDTLEGYVKNTFSVLELFKAAQSYPHESALKKQCCWTKQYLEMELSSWVKTSVRDKYLKKEVEDALAFPSYASLERSDHRRKILNGSAVENTRVTKTSYRLHNICTSDILKLAVDDFNFCQSIHREEMERLDRWIVENRLQELKFARQKLAYCYFSGAATLFSPELSDARISWAKGGVLTTVVDDFFDVGGSKEELENLIHLVEKWDLNGVPEYSSEHVEIIFSVLRDTILETGDKAFTYQGRNVTHHIVKIWLDLLKSMLREAEWSSDKSTPSLEDYMENAYISFALGPIVLPATYLIGPPLPEKTVDSHQYNQLYKLVSTMGRLLNDIQGFKRESAEGKLNAVSLHMKHERDNRSKEVIIESMKGLAERKREELHKLVLEEKGSVVPRECKEAFLKMSKVLNLFYRKDDGFTSNDLMSLVKSVIYEPVSLQEESLT | failed
22 | MSIPNHVSTTEVVLLELEILLTIISIGAWGGFVSYLLRKDKTEYNSSHESIKYCLTQIVISCFTSFLLSAIAIEKECSFNIVLLAAGLGGVFASPILKILGRRIKKIIEGNNSD | failed
23 | MSIPTDVVSLQIMAQVYQKKGLQSIFKKTVESLVEHVPYIDWAGIYMYDQLDYKLVAASNFEEDLRWDCNGELKFPIKNNEDKEVGMLIVRTLQPIAFDVTDVSTLETIATAIGQESYAN | failed
24 | MSIRILPENEIKPSASAFEIPPLLFANPKNLYTRRAKRLRELAKNNPLRDYLEFAAHLVDIQLTLLETAPIGNYAEKLTAYLTENQGQKPLNKQQFARDEKWLELLLALIKQCKPYATGAILTTLEFLEKASYAELNNLADHLLNERYEQVSPDQSVFIWLALSLYWTQLAQQLPRHTQAEIGERHTCPVCGSAPITSVIHLDKTQGLRYLHCALCESEWNMTRAQCSNCDESGDLNYWSFDTVEAPIKAESCGDCHSYLKVLYQEKDPYVEPLADDLASLMLDIEMEQKGFVRSGLNPFLFSIE | not failed
25 | MSIRLRKTVMSVLLGALLAGNLLPAQADTQDRLPDIGTTAGGTLSINQELAMGDFYVRQLRAGAPLINDPLLSDYINQLGNRLVKQADSVRTPFHFYLIRNDDINAFAFFGGNVVLHSALFRYADSESELASVLAHEISHVTQRHLARSMESQQRSAPLTWVGALGSILLAMANPQLGMAALSGTLAGAQQGMITFTQSNEQEADRIGIQVLQRAGFDPQAMPNFLQKLADQSRYASRPPEMLLTHPLPESRLSDARNRANQMRPTPVQSSQDFLFAKIRTFGMYGSPDRPLNDDLLVQWEKGNVREQLAAKYGRAIQLYQAKKYDEARNVLQPLLSSAPDNPWFLDMMTDIDLGQNRAAQAIARLQNVTGMQANPVLQLNLANAYVEGKQPAAAGKILYRYTYAHPDDPNGWDLLAQTAAAQGQRAEELAARAESLALNGQLDQSIRLLSNASSLVKLGSLEQARYDARIDQLRQLQQRFRQYQKS | failed
